Measured values as given in patent publication US20240287163A1 (Chugai, published 2024).
Residue numbers refer to the chain shown, from its start.

What was measured:
Test in all cases: SPR (Biacore T200), antibody captured on protein L, FcγR injected
[1] = target: T1, cynomolgus Fc gamma receptor IIa2 (cynomolgus monkey)
T1 construct: also called cyFcγRIIa2
T1 chain: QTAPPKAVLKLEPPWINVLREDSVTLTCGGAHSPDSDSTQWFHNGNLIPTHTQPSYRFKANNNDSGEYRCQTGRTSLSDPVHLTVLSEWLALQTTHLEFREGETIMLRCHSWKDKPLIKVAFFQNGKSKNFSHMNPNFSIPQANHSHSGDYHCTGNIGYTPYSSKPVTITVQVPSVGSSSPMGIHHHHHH
Procedure: (§1) The binding property of each sample to FcγRs at pH7.4 was determined at 25° C. using BIACORE® T200 instrument (Cytiva). First, protein L (BioVision) was immobilized onto all of the flow cells of a CM4 sensor chip using Amine Coupling Kit, type2 (Cytiva). 50 mM phosphate buffer (pH7.4) containing 150 mM NaCl, 0.05% Tween® 20 was used as the running buffer, and antibodies with the binding response of which were prepared to 500 RU or 2000 RU were captured on the sensor surface. Human and monkey FcγRs diluted with the running buffer were injected thereto and the amount bound with the antibodies was measured. hFcγRIa and cyFcγRIa were diluted to 8 nM, and the rest were diluted to 1000 nM. The sensor surface was regenerated every cycle, using 10 mM glycine hydrochloride solution, pH1.5 (prepared in-house).

[2] = target: T2, cynomolgus Fc gamma receptor IIa3 (cynomolgus monkey)
T2 construct: also called cyFcγRIIa3
T2 chain: T1 chain with K127I, N130K, H133P, Q142R
Procedure: as §1

[3] = target: T3, cynomolgus Fc gamma receptor Ia (cynomolgus monkey, UniProt P12314 16-288 (human entry))
T3 construct: also called cyFcγRIa
T3 chain: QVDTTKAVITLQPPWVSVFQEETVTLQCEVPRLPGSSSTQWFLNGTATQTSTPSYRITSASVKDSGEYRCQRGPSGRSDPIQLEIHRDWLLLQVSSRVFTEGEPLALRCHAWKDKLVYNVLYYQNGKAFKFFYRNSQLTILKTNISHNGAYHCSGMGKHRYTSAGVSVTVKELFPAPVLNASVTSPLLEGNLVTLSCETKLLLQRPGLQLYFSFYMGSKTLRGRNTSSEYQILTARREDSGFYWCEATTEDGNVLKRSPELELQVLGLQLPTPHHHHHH
Procedure: as §1

[4] = target: T4, cynomolgus Fc gamma receptor IIa1 (cynomolgus monkey)
T4 construct: also called cyFcγRIIa1
T4 chain: T1 chain with T95P, A121T, K127I, S128A, N130K, N135D, Q142R
Procedure: as §1

[5] = target: T5, cynomolgus Fc gamma receptor IIIa (R) (cynomolgus monkey, UniProt Q8SPW2 17-208)
T5 construct: also called cyFcγRIIIa(R)
T5 sequence (Q8SPW2 other isoform, or with tags, fused parts or gaps): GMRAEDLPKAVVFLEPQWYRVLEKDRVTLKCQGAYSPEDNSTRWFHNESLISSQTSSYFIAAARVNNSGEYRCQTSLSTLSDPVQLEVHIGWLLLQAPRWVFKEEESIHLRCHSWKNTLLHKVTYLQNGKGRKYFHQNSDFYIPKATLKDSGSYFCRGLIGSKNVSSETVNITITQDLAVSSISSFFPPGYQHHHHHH
Procedure: as §1

[6] = target: T6, cynomolgus Fc gamma receptor IIIa (S) (cynomolgus monkey, UniProt Q8SPW2 21-206 at identity 1.00))
T6 construct: also called cyFcγRIIIa(S)
T6 chain: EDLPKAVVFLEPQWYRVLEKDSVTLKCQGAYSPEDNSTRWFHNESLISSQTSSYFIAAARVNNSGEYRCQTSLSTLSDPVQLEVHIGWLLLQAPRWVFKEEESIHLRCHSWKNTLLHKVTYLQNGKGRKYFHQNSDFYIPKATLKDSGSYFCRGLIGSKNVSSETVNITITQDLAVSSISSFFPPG
Procedure: as §1

[7] = target: T7, cynomolgus Fc gamma receptor IIb (cynomolgus monkey)
T7 construct: also called cyFcγRIIb
T7 chain: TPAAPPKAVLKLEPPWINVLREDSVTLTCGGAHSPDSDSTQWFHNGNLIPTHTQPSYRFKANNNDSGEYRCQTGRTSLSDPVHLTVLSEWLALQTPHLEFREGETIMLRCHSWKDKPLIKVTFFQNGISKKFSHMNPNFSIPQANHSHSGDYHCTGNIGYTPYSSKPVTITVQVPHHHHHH
Procedure: as §1

B1: COS0637pHv2-FcgSil (antibody)
heavy: QVQLVESGGGVVQPGRSLRLSCAASGFRFSAYAMNWIRQPPGKGLEWIGLIYGKGSTFYASWAKERVTISVDTSKNQFSLKLSSVTAADTAVYYCARGRSVNYNSDFHLWGQGTLVTVSSASTKGPSVFPLAPSSKSTSGGTAALGCLVKDYFPEPVTVSWNSGALTSGVHTFPAVLQSSGLYSLSSVVTVPSSSLGTQTYICNVNHKPSNTKVDKRVEPKSCDKTHTCPPCPAPELRRGPSVFLFPPKPKDTLMISRTPEVTCVVVDVSDEDPEVKFNWYVDGVEVHNAKTKPREELYNSTYRVVSVLTVLHRDWLNGKEYKCKVSNTALPKPIEKTISKAKGQRREPQVYTLPPSREEMTKNQVSLTCLVKGFYPSDIAVEWESNGQPENNYKTTPPVLDSDGSFFLYSKLTVDKSRWQQGNVFSCSVLHEALHAHTTRKELSLSP
light: DIQMTQSPSSLSASVGDRVTITCQASQSLHDKKNLAWYQQKPGQPPKLLIYGASTLESGVPSRFSGSGSGTDFTLTISSLQPEDFATYYCQGEFSCSSADCNTFGQGTKVEIKRTVAAPSVFIFPPSDEQLKSGTASVVCLLNNFYPREAKVQWKVDNALQSGNSQESVTEQDSKDSTYSLSSTLTLSKADYEKHKVYACEVTHQGLSSPVTKSFNRGEC
notes: FcγR-silenced constant region FcgSil
B1: no binding (tested: 1000 nM) [1]; no binding (tested: 1000 nM) [2]; no binding (tested: 8 nM) [3]. B1: no binding (tested: 1000 nM) [4]; no binding (tested: 1000 nM) [5]; no binding (tested: 1000 nM) [6]. B1: no binding (tested: 1000 nM) [7].
